For nine molecules, Kd, koff and kon results are on record in patent US20130251724A1 (GlaxoSmithKline, published 2013).

First the molecules themselves.
T1: Human OSM (human, UniProt P13725 26-221)
T1 construct: Recombinant human OSM; also called hOSM; human Oncostatin M
T1 sequence: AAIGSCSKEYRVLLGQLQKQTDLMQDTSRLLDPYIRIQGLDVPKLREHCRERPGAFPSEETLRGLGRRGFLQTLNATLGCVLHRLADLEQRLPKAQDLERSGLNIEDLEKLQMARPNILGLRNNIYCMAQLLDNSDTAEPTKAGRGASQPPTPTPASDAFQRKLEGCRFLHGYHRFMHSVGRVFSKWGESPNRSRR

B1: Humanised 10G8 H0L0 (antibody, V domains shown)
VH: EVQLVESGGGLVQPGGSLRLSCAASGFTFSNYAMSWVRQAPGKGLEWVATISDGGSFTYYLDNVRGRFTISRDNAKNSLYLQMNSLRAEDTAVYYCARDVGHTTFWYFDVWGRGTLVTVSS
VL: DIVMTQSPDSLAVSLGERATINCRASKSVSAAGYNFMHWYQQKPGQPPKLLIYYASNLESGVPDRFSGSGSGTDFTLTISSLQAEDVAVYYCLHSREFPFTFGGGTKVEIK
B2: Humanised 10G8 H1L3 (antibody, V domains shown)
VH: B1 VH with V2M
VL: B1 VL with K107N
B3: Humanised 10G8 H2L0 (antibody, V domains shown)
VH: B1 VH with R113S
VL: B1 VL
B4: Humanised 10G8 H2L2 (antibody, V domains shown)
VH: B1 VH with R113S
VL: B1 VL with A88V
B5: Humanised 10G8 H2L3 (antibody, V domains shown)
VH: B1 VH with R113S
VL: B1 VL with K107N
B6: Humanised 10G8 H0L2 (antibody, V domains shown)
VH: B1 VH
VL: B1 VL with A88V
B7: Humanised 10G8 H1L0 (antibody, V domains shown)
VH: B1 VH with V2M
VL: B1 VL
B8: Humanised 10G8 H1L2 (antibody, V domains shown)
VH: B1 VH with V2M
VL: B1 VL with A88V
B9: Humanised 10G8 H0L3 (antibody, V domains shown)
VH: B1 VH
VL: B1 VL with K107N

Residue numbers refer to the chain shown, from its start.

For the assay, the target named is T1, Human OSM. The assay can be described thus: BIAcore kinetics, transfection supernatant.
In general, Kd refers to the constant that tells how readily two partners part at equilibrium. Read a high Kd as lower affinity. By koff is commonly meant a measure of how fast the partners let go of each other. Lower therefore signals slow dissociation. Usually kon stands for a measure of how fast the partners come together. Regarding B1, the equilibrium dissociation constant (Kd) came to 435 pM, the off-rate (koff) was determined as 0.00016 s⁻¹ and the on-rate constant (kon) worked out at 369000 M⁻¹ s⁻¹.
The matching figures for B2: 344 pM, 0.000127 s⁻¹ and 371000 M⁻¹ s⁻¹.
For B3 the same measures were 398 pM, 0.000145 s⁻¹ and 363000 M⁻¹ s⁻¹.
Turning to B4, binding was put at a Kd of 387 pM, the koff stood at 0.000142 s⁻¹ and the association rate constant (kon) turned out to be 368000 M⁻¹ s⁻¹.
For B5 the same measures were 398 pM, 0.00015 s⁻¹ and 376000 M⁻¹ s⁻¹.
As to B6, the affinity, expressed as Kd, was 375 pM; the koff is 0.000137 s⁻¹; the kon stood at 365000 M⁻¹ s⁻¹.
For B7 the same measures were 425 pM, 0.000162 s⁻¹ and 381000 M⁻¹ s⁻¹.
The matching figures for B8: 445 pM, 0.000163 s⁻¹ and 365000 M⁻¹ s⁻¹.
The molecule B9 gave an equilibrium dissociation constant (Kd) of 388 pM, a koff of 0.000145 s⁻¹ and a kon of 374000 M⁻¹ s⁻¹.
